Sequences and labels used below:
B1: HA.ELK-1 [not stated] / recombinant core^SRF [not stated] (parent)
chain 1: MDPSVTLWQFLLQLLREQGNGHIISWTSRDGGEFKLVDAEEVARLWGLRKNKTNMNYDKLSRALRYYYDKNIIRKVSGQKFVYKFVSYPEVAGCSTEDCPPQPEVSVTSTMPNVAPAAIHAAPGDTVSGKPGTPKGAGMAGPGGLARSSRNEYMRSGLYSTFTIQSLQPQPPPHPRPAVVLPSAAPAGAAAPPSGSRSTSPSPLEACLEAEEAGLPLQVILTPPEAPNLKSEELNVEPGLGRALPPEVKVEGPKEELEVAGERGFVPETTKAEPEVPPQEGVPARLPAVVMDTAGQAGGHAASSPEISQPQKGRKPRDLELPLSPSLLGGPGPERTPGSGSGSGLQAPGPALTPSLLPTHTLTPVLLTPSSLPPSIHFWSTLSPIAPRSPAKLSFQFPSSGSAQVHIPSISVDGLSTPVVLSPGPQKP
chain 2: SGAKPGKKTRGRVKIKMEFIDNKLRRYTTFSKRKTGIMKKAYELSTLTGTQVLLLVASETGHVYTFATRKLQPMITSETGKALIQTCLNSP

This test covers variants of B1. Description: EMSA (ternary complex with coreSRF on radio-labelled SRE probe), densitometry. The note with it: parent: 100, read off a plot.
For chain 1 MDPSVTLWQFLLQLLREQGNGHIISWTSRDGGEFKLVDAEEVARLWGLRRNRTNMNYDKLSRALRYYYDKNIIRKVSGQKFVYKFVSYPEVAGCSTEDCPPQPEVSVTSTMPNVAPAAIHAAPGDTVSGKPGTPKGAGMAGPGGLARSSRNEYMRSGLYSTFTIQSLQPQPPPHPRPAVVLPSAAPAGAAAPPSGSRSTSPSPLEACLEAEEAGLPLQVILTPPEAPNLKSEELNVEPGLGRALPPEVKVEGPKEELEVAGERGFVPETTKAEPEVPPQEGVPARLPAVVMDTAGQAGGHAASSPEISQPQKGRKPRDLELPLSPSLLGGPGPERTPGSGSGSGLQAPGPALTPSLLPTHTLTPVLLTPSSLPPSIHFWSTLSPIAPRSPAKLSFQFPSSGSAQVHIPSISVDGLSTPVVLSPGPQKP [chain 1 K50R K52R], the percent of parent (% of ELK-1 (WT = 100)) amounted to 51.
With chain 1 MDPSVTLWQFLLQLLREQGNGHIISWTSRDGGEFKLVDAEEVARLWGLRKNKTNMNYDRLSRALRYYYDKNIIRKVSGQKFVYKFVSYPEVAGCSTEDCPPQPEVSVTSTMPNVAPAAIHAAPGDTVSGKPGTPKGAGMAGPGGLARSSRNEYMRSGLYSTFTIQSLQPQPPPHPRPAVVLPSAAPAGAAAPPSGSRSTSPSPLEACLEAEEAGLPLQVILTPPEAPNLKSEELNVEPGLGRALPPEVKVEGPKEELEVAGERGFVPETTKAEPEVPPQEGVPARLPAVVMDTAGQAGGHAASSPEISQPQKGRKPRDLELPLSPSLLGGPGPERTPGSGSGSGLQAPGPALTPSLLPTHTLTPVLLTPSSLPPSIHFWSTLSPIAPRSPAKLSFQFPSSGSAQVHIPSISVDGLSTPVVLSPGPQKP [chain 1 K59R], the percent of parent (% of ELK-1 (WT = 100)) was 11.
